Measured values taken from the supplement of paper PMC5998384.

Assays:
[1] = system: HeLa Kyoto; assay: solubility change mitosis vs G1/S (difference of NP-40 vs SDS log2 ratios) (log2 ratio difference); higher = more soluble in mitosis
[2] = system: HeLa Kyoto; assay: solubility in G1/S (NP-40 vs SDS abundance) (log2 ratio); higher = more soluble; settings: cell cycle stage: G1/S
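Throughout, for solubility change mitosis vs G1/S (difference of NP-40 vs SDS log2 ratios): synchronized HeLa Kyoto cells (double thymidine block for G1/S, nocodazole release for mitosis), protein amounts in NP-40 versus SDS lysates quantified by mass spectrometry, three biological replicates.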
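Throughout, for solubility in G1/S (NP-40 vs SDS abundance): HeLa Kyoto cells arrested at G1/S by double thymidine block, proteins quantified by TMT10plex mass spectrometry in mild NP-40 versus SDS extracts, three biological replicates.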

Sequence of POLR3K (chain, as listed by the source): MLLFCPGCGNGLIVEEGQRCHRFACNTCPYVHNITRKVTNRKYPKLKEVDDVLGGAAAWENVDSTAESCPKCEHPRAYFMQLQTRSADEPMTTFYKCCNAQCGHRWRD

For “MELATRYQIPKEVADIFNAPSDDEEFVGFRDDVPMETLSSEESCDSFDSLESGKQQDVRFHSKYFTEELRRIFIEDTDSETEDFAGFTQSDLNGKTNPEVMVVESDLSDDGKASLVSEEEEDEEEDKATPRRSRSRRSSIGLRVAFQFPTKKLANKPDKNSSSEQLFSSARLQNEKKTILERKKDCRQVIQREDSTSESEDDSRDESQESSDALLKRTMNIKENKAMLAQLLAELNSMPDFFPVRTPTSASRKKTVRRAFSEGQITRRMNPTRSARPPEKFALENFTVSAAKFAEEFYSFRRRKTIGGKCREYRRRHRISSFRPVEDITEEDLENVAITVRDKIYDKVLGNTCHQCRQKTIDTKTVCRNQGCCGVRGQFCGPCLRNRYGEDVRSALLDPDWVCPPCRGICNCSYCRKRDGRCATGILIHLAKFYGYDNVKEYLESLQKELVEDN [CDCA7L]”, which “solubility change mitosis (log2)” value [1] is on record?
Its value is 0.727.

What about the “solubility in G1/S (log2)” value [2] of the same substance?
The value was -0.846.

With NSA2 as the substance, how does the “solubility change mitosis (log2)” value [1] read?
The value was 1.41.

What about the “solubility in G1/S (log2)” value [2] of the same substance?
The value was -2.43.

With “MESKGASSCRLLFCLLISATVFRPGLGWYTVNSAYGDTIIIPCRLDVPQNLMFGKWKYEKPDGSPVFIAFRSSTKKSVQYDDVPEYKDRLNLSENYTLSISNARISDEKRFVCMLVTEDNVFEAPTIVKVFKQPSKPEIVSKALFLETEQLKKLGDCISEDSYPDGNITWYRNGKVLHPLEGAVVIIFKKEMDPVTQLYTMTSTLEYKTTKADIQMPFTCSVTYYGPSGQKTIHSEQAVFDIYYPTEQVTIQVLPPKNAIKEGDNITLKCLGNGNPPPEEFLFYLPGQPEGIRSSNTYTLTDVRRNATGDYKCSLIDKKSMIASTAITVHYLDLSLNPSGEVTRQIGDALPVSCTISASRNATVVWMKDNIRLRSSPSFSSLHYQDAGNYVCETALQEVEGLKKRESLTLIVEGKPQIKMTKKTDPSGLSKTIICHVEGFPKPAIQWTITGSGSVINQTEESPYINGRYYSKIIISPEENVTLTCTAENQLERTVNSLNVSAISIPEHDEADEISDENREKVNDQAKLIVGIVVGLLLAALVAGVVYWLYMKKSKTASKHVNKDLGNMEENKKLEENNHKTEA [ALCAM]” as the substance, how does the “solubility change mitosis (log2)” value [1] read?
The value was -0.0197.

What about the “solubility in G1/S (log2)” value [2] of the same substance?
Its value is 0.38.

With “MAALGVLESDLPSAVTLLKNLQEQVMAVTAQVKSLTQKVQAGAYPTEKGLSFLEVKDQLLLMYLMDLTHLILDKASGGSLQGHDAVLRLVEIRTVLEKLRPLDQKLKYQIDKLIKTAVTGSLSENDPLRFKPHPSNMMSKLSSEDEEEDEAEDDQSEASGKKSVKGVSKKYVPPRLVPVHYDETEAEREKKRLERAKRRALSSSVIRELKEQYSDAPEEIRDARHPHVTRQSQEDQHRINYEESMMVRLSVSKREKGRRKRANVMSSQLHSLTHFSDISALTGGTVHLDEDQNPIKKRKKIPQKGRKKKGFRRRR [NGDN]” as the substance, how does the “solubility change mitosis (log2)” value [1] read?
Its value is 0.93.

And the “solubility in G1/S (log2)” value [2]?
The value was -1.83.

With POLR3K as the substance, how does the “solubility change mitosis (log2)” value [1] read?
Its value is 0.031.

And the “solubility in G1/S (log2)” value [2]?
The value was 0.354.

How did the “solubility change mitosis (log2)” value [1] turn out when “MSLPLTEEQRKKIEENRQKALARRAEKLLAEQHQRTSSGTSIAGNPFQAKQGPSQNFPRESCKPVSHGVIFKQQNLSSSSNADQRPHDSHSFQAKGIWKKPEEMPTACPGHSPRSQMALTGISPPLAQSPPEVPKQQLLSYELGQGHAQASPEIRFTPFANPTHKPLAKPKSSQETPAHSSGQPPRDAKLEAKTAKASPSGQNISYIHSSSESVTPRTEGRLQQKSGSSVQKGVNSQKGKCVRNGDRFQVLIGYNAELIAVFKTLPSKNYDPDTKTWNFSMNDYSALMKAAQSLPTVNLQPLEWAYGSSESPSTSSEGQAGLPSAPSLSFVKGRCMLISRAYFEADISYSQDLIALFKQMDSRRYDVKTRKWSFLLEEHSKLIAKVRCLPQVQLDPLPTTLTLAFASQLKKTSLSLTPDVPEADLSEVDPKLVSNLMPFQRAGVNFAIAKGGRLLLADDMGLGKTIQAICIAAFYRKEWPLLVVVPSSVRFTWEQAFLRWLPSLSPDCINVVVTGKDRLTAGLINIVSFDLLSKLEKQLKTPFKVVIIDESHFLKNSRTARCRAAMPVLKVAKRVILLSGTPAMSRPAELYTQIIAVKPTFFPQFHAFGLRYCDAKRMPWGWDYSGSSNLGELKLLLEEAVMLRRLKSDVLSQLPAKQRKIVVIAPGRINARTRAALDAAAKEMTTKDKTKQQQKDALILFFNRTAEAKIPSVIEYILDLLESGREKFLVFAHHKVVLDAITQELERKHVQHIRIDGSTSSAEREDLCQQFQLSERHAVAVLSITAANMGLTFSSADLVVFAELFWNPGVLIQAEDRVHRIGQTSSVGIHYLVAKGTADDYLWPLIQEKIKVLAEAGLSETNFSEMTESTDYLYKDPKQQKIYDLFQKSFEKEGSDMELLEAAESFDPGSASGTSGSSSQNMGDTLDESSLTASPQKKRRFEFFDNWDSFTSPL [SMARCAL1]” was run?
Its value is 0.0546.

What about the “solubility in G1/S (log2)” value [2] of the same substance?
Its value is 0.0557.
